Results as given in US20090202506A1 (ORTHO MCNEIL PHARMACEUTICAL, published 2009).
Values belong to the binder of their own block, whether it stands above or below them.

Key:
L^d MHC class I molecule [1] = target: T1, L^d MHC class I molecule (;mouse, UniProt P01887 21-119; P01897 25-362, limits assumed); assay: MHC class I stabilization assay, flow cytometry on RMAS-L^d cells
T1 construct: Empty class I molecule on the surface of RMAS-L^d cells; also called L^d class I molecules
T1 sequence (MHC heavy, looked up): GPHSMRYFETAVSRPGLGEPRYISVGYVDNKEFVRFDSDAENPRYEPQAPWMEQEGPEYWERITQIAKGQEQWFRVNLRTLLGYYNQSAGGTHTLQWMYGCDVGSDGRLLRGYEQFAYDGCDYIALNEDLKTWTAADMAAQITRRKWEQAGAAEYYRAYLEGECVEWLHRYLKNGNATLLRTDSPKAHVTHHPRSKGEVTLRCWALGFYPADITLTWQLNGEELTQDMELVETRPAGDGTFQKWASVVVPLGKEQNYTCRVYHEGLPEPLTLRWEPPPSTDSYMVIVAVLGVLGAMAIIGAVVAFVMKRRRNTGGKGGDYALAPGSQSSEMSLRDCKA
T1 sequence (b2m, looked up): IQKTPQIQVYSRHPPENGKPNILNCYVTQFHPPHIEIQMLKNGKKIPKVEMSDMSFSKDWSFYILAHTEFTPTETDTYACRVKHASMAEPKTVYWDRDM
Experimental: (§1) The binding capacity of these synthetic peptides to L^d and D^b class I molecules were tested in an MHC class I stabilization assay (Cai et al. (1996) supra). Antigen-transporting deficient (TAP) RMAS cells (H-2^b) or L^d transfected RMAS (RMAS-L^d) cells were cultured in the presence of a titrated concentration of peptides at 27° C. After overnight culturing at 27° C., these cells were further cultured for two hours at 37° C. and the surface expression of L^d or D^b on the cells were analyzed by flow cytometry. […] Of the five peptides predicted bind to D^b, only IgE44 binds Db strongly and two peptides, IgE16 and IgE125, bind D^b weakly. […] Thus, a total of six peptides were identified that bind to either L^d or D^b MHC class I molecules.

D^b MHC class I molecule [2] = target: T2, D^b MHC class I molecule (;mouse, UniProt P01887 21-119; P01899 25-309, limits assumed); assay: MHC class I stabilization assay, flow cytometry on RMAS cells
T2 construct: Empty class I molecule on the surface of RMAS cells; also called D^b class I molecules
T2 sequence (MHC heavy, looked up): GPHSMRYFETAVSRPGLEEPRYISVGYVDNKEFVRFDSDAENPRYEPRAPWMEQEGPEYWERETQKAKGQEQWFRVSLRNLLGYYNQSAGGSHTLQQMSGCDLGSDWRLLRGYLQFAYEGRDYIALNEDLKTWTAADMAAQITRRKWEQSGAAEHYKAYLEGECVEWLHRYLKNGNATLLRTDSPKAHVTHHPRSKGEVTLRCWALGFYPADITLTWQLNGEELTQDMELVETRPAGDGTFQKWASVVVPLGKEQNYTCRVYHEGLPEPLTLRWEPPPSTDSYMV
T2 sequence (b2m, looked up): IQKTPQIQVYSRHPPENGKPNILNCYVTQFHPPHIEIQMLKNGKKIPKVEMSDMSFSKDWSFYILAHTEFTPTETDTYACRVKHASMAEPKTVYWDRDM
Experimental: as §1

L^d MHC class I molecule [3] = target: T1, L^d MHC class I molecule; assay: MHC class I stabilization assay, flow cytometry of surface L^d on RMAS-L^d cells with titrated peptide
Experimental: as §1

D^b MHC class I molecule [4] = target: T2, D^b MHC class I molecule; assay: MHC class I stabilization assay, flow cytometry of surface D^b on RMAS cells with titrated peptide
Experimental: as §1

Binder: KPCKGTASM [IgE 11]
ratio of fluorescence intensity (with peptide - without peptide)/without peptide (L^d MHC class I molecule [1]): > 2 fold

Binder: MSTVNFPAL (also called MSTVNFPAL) [IgE 44]
ratio of fluorescence intensity (with peptide - without peptide)/without peptide (D^b MHC class I molecule [2]): > 2 fold

Binder: GHILNDVSV [IgE 125]
binding result (D^b MHC class I molecule [2]): binds

Binder: TASMTLGCL [IgE 16]
binding result (D^b MHC class I molecule [2]): binds

Binder: GSNQGFFIF [IgE 366]
binding result (D^b MHC class I molecule [2]): binds
binding result (L^d MHC class I molecule [1]): binds

Further lines, results first:

binding result (L^d MHC class I molecule [3]): no binding
Binder: IPPSPLDLY [IgE 209]

binding result (L^d MHC class I molecule [3]): no binding
Binder: RSAPEVYVF [IgE 307]

binding result (L^d MHC class I molecule [3]): no binding
Binder: KSNGSNQGF [IgE 363]

binding result (L^d MHC class I molecule [3]): no binding
Binder: HSSCDPNAF [IgE 105]

binding result (D^b MHC class I molecule [4]): no binding
Binder: TSLGNTSLR [IgE 411]

binding result (L^d MHC class I molecule [3]): no binding
Binder: FPNPVTVTW [IgE 29]

binding result (D^b MHC class I molecule [4]): no binding
Binder: ASTCSKLNI [IgE 159]

binding result (L^d MHC class I molecule [1]): binds
Binder: HSTIQLYCF [IgE 114]
